Numbering of substitutions follows the chain as printed. Read-outs that look alike come from different tables or passages of the source. One block for each binder: values may come before it.
Columns and labels:
hFc-human LIGHT [1] = biological target: T1, hFc-human LIGHT (human); experiment: competition ELISA, LTβR-His coated, hFc-huLIGHT added
T1 construct: also called hFc-huLIGHT

His-human LIGHT [2] = biological target: T2, His-human LIGHT (human); experiment: cell-based or functional assay
T2 chain: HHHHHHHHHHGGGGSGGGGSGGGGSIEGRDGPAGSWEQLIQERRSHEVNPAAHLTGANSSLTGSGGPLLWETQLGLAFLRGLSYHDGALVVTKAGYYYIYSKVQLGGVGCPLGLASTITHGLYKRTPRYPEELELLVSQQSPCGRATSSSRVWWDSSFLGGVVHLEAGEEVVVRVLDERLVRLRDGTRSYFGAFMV

His-human LIGHT [3] = biological target: T2, His-human LIGHT; experiment: ELISA, His-huLIGHT coated
[4] = biological target: T3, LIGHT on the surface of HEK293-LIGHT stable cells (human, UniProt O43557 1-240); experiment: cell-based or functional assay
His-human LIGHT [5] = biological target: T2, His-human LIGHT; experiment: cell-based or functional assay
His-human LIGHT [6] = biological target: T2, His-human LIGHT; experiment: cell-based or functional assay
His-human LIGHT [7] = biological target: T2, His-human LIGHT; experiment: cell-based or functional assay
hFc-human LIGHT [8] = biological target: T1, hFc-human LIGHT; experiment: competition ELISA, LTβR-His coated, hFc-huLIGHT added; remark: listed apart in the source
His-human LIGHT [9] = biological target: T2, His-human LIGHT; experiment: ELISA, His-huLIGHT coated
[10] = biological target: T3, LIGHT on the surface of HEK293-LIGHT …; experiment: cell-based or functional assay; remark: listed apart in the source
[11] = biological target: T4, His-cynomolgus monkey LIGHT (cynomolgus monkey); experiment: ELISA, His-cynoLIGHT coated
T4 construct: also called His-cynoLIGHT
T4 chain: T2 chain with P32H, A33G, E47Q, V48N, S83D, V91A, T92N, S149N, A167V

His-mouse LIGHT = biological target: T5, His-mouse LIGHT (mouse); experiment: ELISA, His-musLIGHT coated
T5 construct: also called His-musLIGHT
T5 chain: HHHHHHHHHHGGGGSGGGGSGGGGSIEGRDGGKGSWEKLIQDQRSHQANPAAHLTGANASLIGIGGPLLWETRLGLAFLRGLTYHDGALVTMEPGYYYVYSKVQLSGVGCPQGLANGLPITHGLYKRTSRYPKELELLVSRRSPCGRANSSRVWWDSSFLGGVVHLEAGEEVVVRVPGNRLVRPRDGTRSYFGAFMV

[12] = biological target: T4, His-cynomolgus monkey LIGHT; experiment: ELISA, His-cynoLIGHT coated

IC50 (hFc-human LIGHT [1]): 0.291 nM
IC50, HVEM NF-κB luciferase reporter, free LIGHT (His-human LIGHT [2]): 0.0933 nM
EC50 (His-human LIGHT [3]): 0.0141 nM
IC50, LTβR NF-κB luciferase reporter, HEK293-LIGHT cells [4]: 8.06 nM
IC50, LTβR NF-κB luciferase reporter, free LIGHT (His-human LIGHT [5]): 0.183 nM
B1: hum_LT-m58-1 (antibody, human IgG4, V domains shown)
VH: QVQLVQSGAEVKKPGASVKVSCKASGYTFIDHIMNWVRKAPGQGLEWMGRIYPVSGETNYNQKFMGRATFTVDRSTSTVYMELSSLRSEDTAVYYCGRGSYYWNAMDYWGQGTLVTVSS
VL: EIVMTQSPATLSVSPGERATLSCKASQSVDFDGDSYMNWYQQKPGQPPRLLIYSASNLESGIPARFSGSGSGTEFTLTISSLQSEDFAVYYCQQSIEDPWTFGQGTKLEIK
notes: humanized from LT-m58

IC50, HVEM NF-κB luciferase reporter, free LIGHT (His-human LIGHT [6]): 0.564 nM
IC50, LTβR NF-κB luciferase reporter, free LIGHT (His-human LIGHT [7]): 0.159 nM
IC50 (hFc-human LIGHT [8]): 0.282 nM
EC50 (His-human LIGHT [9]): 0.00869 nM
IC50, LTβR NF-κB luciferase reporter, HEK293-LIGHT cells [10]: 4.68 nM
EC50 [11]: 0.0155 nM
binding result (His-mouse LIGHT): no binding
B2: hum_LT-m85-3 (antibody, human IgG4, V domains shown)
VH: QVQLVQSGAEVKKPGASVKVSCKASGYTFTSYNVHWVRQAPGQGLEWIGAVYPGNGDTSYNQKFKGRATLTADKSTSTVYMELSSLRSEDTAVYYCARGSYYYTSSYFDHWGQGTLVTVSS
VL: B1 VL with S54T, I96Y, W100F
notes: humanized from LT-m85

IC50 (hFc-human LIGHT [1]): 0.258 nM
IC50, HVEM NF-κB luciferase reporter, free LIGHT (His-human LIGHT [2]): 0.199 nM
EC50 (His-human LIGHT [3]): 0.0154 nM
IC50, LTβR NF-κB luciferase reporter, HEK293-LIGHT cells [4]: 5.91 nM
IC50, LTβR NF-κB luciferase reporter, free LIGHT (His-human LIGHT [5]): 0.135 nM
B3: hum_LT-m58-2 (antibody, human IgG4, V domains shown)
VH: B1 VH with M48I, A68V
VL: B1 VL with P47A, L108V
notes: humanized from LT-m58

IC50, HVEM NF-κB luciferase reporter, free LIGHT (His-human LIGHT [6]): 0.209 nM
IC50, LTβR NF-κB luciferase reporter, free LIGHT (His-human LIGHT [7]): 0.0613 nM
IC50 (hFc-human LIGHT [8]): 0.265 nM
EC50 (His-human LIGHT [9]): 0.0131 nM
IC50, LTβR NF-κB luciferase reporter, HEK293-LIGHT cells [10]: 6.02 nM
EC50 [11]: 0.0142 nM
binding result (His-mouse LIGHT): no binding
B4: hum_LT-m85-2 (antibody, human IgG4, V domains shown)
VH: B2 VH with I48M, V79A
VL: B1 VL with S54T, I96Y, W100F
notes: humanized from LT-m85

IC50, HVEM NF-κB luciferase reporter, free LIGHT (His-human LIGHT [6]): 0.33 nM
IC50, LTβR NF-κB luciferase reporter, free LIGHT (His-human LIGHT [7]): 0.649 nM
IC50 (hFc-human LIGHT [8]): 0.274 nM
EC50 (His-human LIGHT [9]): 0.0123 nM
IC50, LTβR NF-κB luciferase reporter, HEK293-LIGHT cells [10]: 4.24 nM
EC50 [11]: 0.0089 nM
binding result (His-mouse LIGHT): no binding
B5: hum_LT-m85-1 (antibody, human IgG4, V domains shown)
VH: B2 VH
VL: B1 VL with M4L, S54T, I96Y, W100F
notes: humanized from LT-m85

IC50, HVEM NF-κB luciferase reporter, free LIGHT (His-human LIGHT [6]): 0.454 nM
IC50, LTβR NF-κB luciferase reporter, free LIGHT (His-human LIGHT [7]): 0.253 nM
IC50 (hFc-human LIGHT [8]): 0.308 nM
EC50 (His-human LIGHT [9]): 0.0127 nM
IC50, LTβR NF-κB luciferase reporter, HEK293-LIGHT cells [10]: 2.56 nM
EC50 [11]: 0.0033 nM
binding result (His-mouse LIGHT): no binding
B6: hum_LT-m85-4 (antibody, human IgG4, V domains shown)
VH: B2 VH with V79A
VL: B1 VL with P47A, S54T, I96Y, W100F
notes: humanized from LT-m85

IC50 (hFc-human LIGHT [1]): 0.746 nM
EC50 [12]: 0.00443 nM
EC50 (His-human LIGHT [3]): 0.0305 nM
binding result (His-mouse LIGHT): no binding
B7: hum_LT-m58-5 (antibody, human IgG4, V domains shown)
VH: B1 VH with M48I, A68V
VL: B1 VL with D34E, P47A, L108V
notes: humanized from LT-m58

IC50 (hFc-human LIGHT [1]): 0.628 nM
EC50 [12]: 0.00258 nM
EC50 (His-human LIGHT [3]): 0.0349 nM
binding result (His-mouse LIGHT): no binding
B8: hum_LT-m58-6 (antibody, human IgG4, V domains shown)
VH: B1 VH
VL: DIVMTQSPDSLAVSLGERATINCKASQSVDFDGESYMNWYQQKPGQPPKLLIYSASNLESGVPDRFSGSGSGTDFTLTISSLQAEDVAVYYCQQSIEDPWTFGQGTKVEIK
notes: humanized from LT-m58

— EP4596580A1 (Staidson (Beijing) Biopharmaceuticals Co., Ltd., dated 2025)
